Among the data in PMC3853298 (2013) are response values, retold here.

To fix the notation:
B1: mouse decorin core protein, wild type (residues 45-354) [modified: N-linked glycans (four consensus sites for N-linked glycosylation); N-linked glycans (four consensus sites for N-linked glycosylation)] [mouse] / rat tail type I collagen … (parent complex)
chain 1: APLALISMCPYRCQCHLRVVQCSDLGLDKVPWDFPPDTTLLDLQNNKITEIKEGAFKNLKDLHTLILVNNKISKISPEAFKPLVKLERLYLSKNQLKELPEKMPRTLQELRVHENEITKLRKSDFNGLNNVLVIELGGNPLKNSGIENGAFQGLKSLSYIRISDTNITAIPQGLPTSLTEVHLDGNKITKVDAPSLKGLINLSKLGLSFNSITVMENGSLANVPHLRELHLDNNKLLRVPAGLAQHKYIQVVYLHNNNISAVGQNDFCRAGHPSRKASYSAVSLYGNPVRYWEIFPNTFRCVYVRSAIQLGNYKAAA
chain 2: not shown
chain 3: not shown

The variants in the experiment derive from B1. The experiment is described as follows: solid-phase binding assay (immobilized collagen, antibody-linked color reaction); decorin 2.5 µM (highest concentration); WT without collagen background est. 0.05; parent: 0.4; read off a plot.
As for chain 1 R111E, the response was around 0.18 OD 492. In the case of chain 1 Y11A, chain 1 R12A, chain 1 Q14A, the response is around 0.28 OD 492.
